Assay results reported in the nanobody polyreactivity screen of Harvey et al. (2022).

Experiment: yeast display, Sf9 membrane polyspecificity reagent, FACS + sequencing; frameworks hold sequencing errors
Outline: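 Polyreactivity labels are assigned by the sorting gate from which each nanobody was recovered. The gates were low and high (top ~1%), set on anti-HA fluorescence for expression and streptavidin fluorescence for reagent binding. Before sorting, galactose-induced (36–48 hours) yeast display cells were stained for 1 hour at 4 °C with 10% biotinylated, detergent-solubilized Sf9 membrane reagent.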

Sequence	polyreactivity (PSR sort gate)
QVQLVESGGGLVQAGGSLRLSCAASGSTFLQNAMGWYRQAPGKEREFVAAISYTGANTYYADSVKGRFTISRDNAKNTVYLQMNSLKPEDTAVYYCNRYAKQYLSGTVPVNLDYWGQGTQVTVSS	high polyreactivity
QVQLVESGGGLVQAGGSLRLSCAASGSTFLRYAMGWYRQAPGKERELVAAINWSGGGTSYADSVKWRFTISRDNAKNTVYLQMNSLKPEDTEGYSCAAYFRYSYYWSEYWGQGTQVTVSS	high polyreactivity
QVQLVESGGGLVQAGGSLRLSCAASGSTFLRYAMGWYRQAPGKERELVAAISLSGGRTHYADSVKGRFTISRDNAKNTVYLQMNSLKPEDTAVYYCAARNTGPVQYYYWGQGTQVTVSS	low polyreactivity
QVQLVESGGGLVQAGGSLRLSCAASGSTFLRYVMGWYRQAPGKERELVAAISRRGGSTYYADSVKGRFTISRDNAKNTVYLQMNSLNPEDTAGYYCARTVGYRTLLESDSCGQGTQVTVSS	high polyreactivity
QVQLVESGGGLVQAGGSLRLSCAASGSTFLSNAMGWYRPAPGKERELVAAITTSGTSTFDADSVKGRFTISRDNAKTTVYLQMNSLKPEDTAVYCAKDYLPYLHFVAPSTGDYDYWGQGTQVTVSS	low polyreactivity
QVQLVESGGGLVQAGGSLRLSCAASGSTFLSYVMGWYRQAPGKERELVAAINRDGGRTYYADSVKGRFTISRDNAKNTVYLQMNSLKPEDTAVYYCATTSQATSGPRRKLYYYWGQGTQVTVSS	high polyreactivity
QVQLVESGGGLVQAGGSLRLSCAASGSTFLVNAMGLYRQAPGKEREFVAAITGNAGSTYYADSVKGRFTISRDNAKITVYLQMNSLIPEDTAVYYCARTRRTPRGYLDFSLREYDYWGQGTQVTVSS	low polyreactivity
QVQLVESGGGLVQAGGSLRLSCAASGSTFLVNAMGWYRQAPGKERELVAAITQSGGSTFYADSVKGRFTISRDNEKNTVYLQMNSLKPEDTAVYYWGQGTQVSVSS	low polyreactivity
QVQLVESGGGLVQAGGSLRLSCAASGSTFLVNGMGWYRQAPGKERELVAAISSGDGSTYYADSVKGRFTISRDNAKNTVYLQMNSLKPEDTAVYYCAVDCWWTGYDYWGQGTQVTVSS	low polyreactivity
QVQLVESGGGLVQAGGSLRLSCAASGSTFLVYAMGWYRQAPGKERELVAVIDNGGDTYYADSVKGRFTISRDNAKNTVYLQMNSLIPEDTEVYYCAADLSYLGYWEYDYWGQGTQVTVSS	low polyreactivity
QVQLVESGGGLVQAGGSLRLSCAASGSTFLVYAMGWYRQAPGKERELVAVIRWRDGSTYYADSVKGRFTISRDNAKNTVYLQMNSLKPEDTAVYYCAAVYWGEEYEYWGQGTQVTVSS	low polyreactivity
QVQLVESGGGLVQAGGSLRLSCAASGSTFLVYDRGWYRQAPGKERELVAAITWSGGSTYYADSVKGRFTISRDNAKNTVYLQINSLTPEYTAVYYCAAEIHRTYSWEYPYEMYWGQGTQVTVSS	high polyreactivity
QVQLVESGGGLVQAGGSLRLSCAASGSTFLYYAMGWYRQAPGKERELVAAIDSGGSTYYADSVKGRFTISRDNAKNTVYLQMNSLKPEDTAVYYCNADFADHWPPNGPGALDYWGQGTQVTVSS	low polyreactivity
QVQLVESGGGLVQAGGSLRLSCAASGSTFMDYAMGWYRQAPGKERELVAAISSGGSTNYADSVKGRFTISRDNAKNTVYLQMNSLKPEDTAVYYCNADYYWSRTQEFDYWGQGTQVTVSS	high polyreactivity
QVQLVESGGGLVQAGGSLRLSCAASGSTFNANTMGWYRQAPGKEREFVAAISWTGASTYYADSVKGRFTISRDNAKNTVYLHMNSLKPEDTAVDYCNADYTVADGPYRDGYDYWGQGTQVTVSS	low polyreactivity
QVQLVESGGGLVQAGGSLRLSCAASGSTFNANTMGWYRQAPGKEREFVAAISWTGASTYYADSVKGRFTISRDNAKNTVYLQMNSLKPEDTAVYYCNADYTVADGPYRDGYDYWGQGTQVTVSS	low polyreactivity
QVQLVESGGGLVQAGGSLRLSCAASGSTFNAYAMGWYRQAPGKERELVAVISSSGGRTYYADSVKGSFTISRDNAKNTVYLQMNSLKPEDTAVYYCNADVKYRYNHWGQGTQVTLSS	high polyreactivity
QVQLVESGGGLVQAGGSLRLSCAASGSTFNAYVMGWYRQAPGKERELVAAITRGGSTNYADSVKGRFTISRDNAKNTVYLQMNSLKPEDTAVYDCAARGPWVIPYDYWGQGTQVTVSS	low polyreactivity
QVQLVESGGGLVQAGGSLRLSCAASGSTFNHNAMGWYRQAPGKERELVAAITSGTSTYYADSVKGRFTISRDNAKNTVYLQMNSLKPEDTAVYYCAADSPWGGGYFVLYNYWGQGTQVTVSS	low polyreactivity
QVQLVESGGGLVQAGGSLRLSCAASGSTFNIYAMGWYRQAPGKERELVAAITWSTGRTYYADSVKGRFTISRDTAKNTVYLQMNSLKPEDTAVYYCAARSKIRAFGYWGLGTQVTVSS	high polyreactivity
QVQLVESGGGLVQAGGSLRLSCAASGSTFNIYTMGWYRQAPGKERELVARITFSGGSTYYADSVKGRFTISRDNAKNTVYLQMNSLKPEDTAVYYCAVRVYRVDHFGYDYWGQGTQVTVSS	high polyreactivity

Sequence	polyreactivity (PSR sort gate)
QVQLVESGGGLVQAGGSLRLSCAASGSTFNKYTMGWYRQAPGKERELVAAITSGDSTYYADSVKGRFTISRDNAKNTVYLQMNSLKPEDTAVYYCAADVRYFDPFDWWGSLVLAYDYWGQGTQVTVSS	low polyreactivity
QVQLVESGGGLVQAGGSLRLSCAASGSTFNQNAMGWYRQAPGKERELVARITSGGSTYYADSVKGRFTISRDNAKNTVYLQMNSLKPEDTAVYYCAARANPYVLKYYYWGQGTQVTVSS	high polyreactivity
QVQLVESGGGLVQAGGSLRLSCAASGSTFNRNTMGWYRQAPGKERELVAAITSSGGRTYYADSVKGRFTISRDNAKNTVFLQVNSLKPEDTAVYYCATVNRVLIAGRFDSWGQGTQVTVSS	high polyreactivity
QVQLVESGGGLVQAGGSLRLSCAASGSTFNRYAMGWYIQAPGKERELVAAITRSGTSTYYADSVKGRFTISRDNAKNTVYLQMNSLKPEDTAVYYCAAVRYAVHFSYDYWGQGTQVTVSS	high polyreactivity
QVQLVESGGGLVQAGGSLRLSCAASGSTFNRYAMGWYRQAPGKERELVADINSGGRTNYADSVKGRFTISRDNAKNTVYLQMNSLKPEDTAVYFCARRFQYWLSGGQYDYWGQGTQVTVSS	high polyreactivity
QVQLVESGGGLVQAGGSLRLSCAASGSTFNSNAMGWYRQAPGKERELVAAISYSGGRTYYADSVKGRFTISRDNAKNTVYLQMNSLKPEDTAVYYCAKSPNHYIHFDYWGQGTQVTVSS	low polyreactivity
QVQLVESGGGLVQAGGSLRLSCAASGSTFNSYAMGWNRQAPGKERELVDRILWSGSTYYADSVKGRFTISRDNAKNTVYLQMNSLKPEDTAVYYFAAKRGYHIGDYWGQCTQVTVSS	high polyreactivity
QVQLVESGGGLVQAGGSLRLSCAASGSTFNSYAMGWYRQAPWKERELVAAISSTGGNTYYADSVKGRFTISRDNAKNTVYLQMNSLKPEDTAVYYCNARRYGKVVRSRYNYWGQGTQVTVSS	high polyreactivity
QVQLVESGGGLVQAGGSLRLSCAASGSTFNTYAMGWYRQAPGKERELVAAITFSVGSTYYADSVKGRFTISRDNAKNTVYLQMNSLKPEDTAVYYCARRGAYTGRYDYWGQGTQVTVSS	high polyreactivity
QVQLVESGGGLVQAGGSLRLSCAASGSTFNYYALGGYRQAPGKERELVAAISTSDGSTYYADSVKGRFTISRDNAKITVYVQMNSLKPEDTAVYYCAADSYERFPSYYYWGQGTQVTVSS	low polyreactivity
QVQLVESGGGLVQAGGSLRLSCAASGSTFNYYAMGWNRQAPVKERELVATISWSGDSTYADSVKGRFTISRDNAKNTVYLQMHSLKPEDTAVYYCATSGDWWCFRYDYWGQGTQVTVSS	low polyreactivity
QVQLVESGGGLVQAGGSLRLSCAASGSTFNYYAMGWYRPAPGKERELVAAICSRSSRTFYADSVKGRFSISRDNEKNTVYLQMNSLKPEDTAVYYCAVKKRAPDGDYWGQGSQVTVSS	high polyreactivity
QVQLVESGGGLVQAGGSLRLSCAASGSTFNYYAMGWYRQAPGKERELVAAISSSGGTTYYADSVKGRFTISRDNAKNTVYLQMKSLKPEDTAVYYCATDTPPYWGGSHFDYWGQGTQVTVSS	low polyreactivity
QVQLVESGGGLVQAGGSLRLSCAASGSTFNYYAMGWYRQAPGKERELVARISWSGSTYADSVKGRFTISRDNAKNTVYLQMNSLKPEDTAVYYCAAPYVQKSHRGMDYWGQGTQVTVSS	low polyreactivity
QVQLVESGGGLVQAGGSLRLSCAASGSTFPANAMGWYRPAPGKERELVATSSWSGGRTYYADSVKGRFTISRDNAKNTVDLQMNSLKPEDTAVYYCAKGYYWLSTYGDSRYGYWGQGTQVTVSS	high polyreactivity
QVQLVESGGGLVQAGGSLRLSCAASGSTFPAYAMGWYRQAPGKERELVATITYTGGSTYYADSVKGRFTISRDNAKNTVYLQMNSLKPEDTAVYYCAADRLVQEDEFDYWGQGTQVTVSS	low polyreactivity
QVQLVESGGGLVQAGGSLRLSCAASGSTFPDNAMGWYRQAPGKERELVAAISFSSGSTYYADSVKGRFTISRDNAKNTVYLQMNILKPEDTAVYYCAVANPSQYEWIAYYYWGQGTQVTVSS	low polyreactivity
QVQLVESGGGLVQAGGSLRLSCAASGSTFPDYVMGRYRQAPGKERELVAAFSSIGGSTYYADSVKGRFTISRDNAKNTVYLQMNCLKPEDTAVYYCAAENSYFYPFDYWGQGTQVTVSS	low polyreactivity
QVQLVESGGGLVQAGGSLRLSCAASGSTFPFYAMGWYRPAPGKERELVAAITSGGSTYADSVKGRFTISRDNAKNSVYLQMNSLKPEDTAVYYCAASWPRWWRFGYWGQGTQVTVSS	low polyreactivity
QVQLVESGGGLVQAGGSLRLSCAASGSTFPFYAMGWYRQAPGTERELVAAITSGGSTYADSVKGRFTISRDNAKNTVYLQMNSLKPEDTAVYYCAASWPRWWRFGYWGQGTQVTVSS	low polyreactivity
